{
  "source": "paper PMC3337949",
  "key": {"[1]": {"molecular_target": "wild type Corkscrew (Csw^WT) (Drosophila)", "test": "co-IP"}, "[2]": {"molecular_target": "substrate-trapping Csw, Csw^C583S (Csw^CS) (Drosophila)", "test": "co-IP"}},
  "data": [
    {"substance": "HA-tagged Draper-II (receptor)", "values": [
      {"measurement": "fold change of the co-immunoprecipitated amount against Draper-I", "setting": "[1]", "value": 24, "unit": "fold"},
      {"measurement": "fold change of the co-immunoprecipitated amount against Csw^WT", "setting": "[2]", "value": 1.7, "unit": "fold"}
    ]}
  ]
}
